Experimental data published in patent US20260209316A1.
Read-outs that look alike come from different tables or passages of the source.

Key:
[1] = biological target: thermolysin-cleaved SUDV GP (GP(S)THL) (Sudan virus (SUDV)) (UniProt Q7T9D9); assay: BLI; Sudan GPTHL on sensor, NPC1-dC, then NPC1-dC (self-competition)
[2] = biological target: thermolysin-cleaved SUDV GP (GP(S)THL) (Sudan virus (SUDV)) (UniProt Q7T9D9); assay: as above; remark: listed apart in the source

Niemann-Pick disease, type C1-domain C (NPC1-dC), sequence (O15118 373-620 limits assumed): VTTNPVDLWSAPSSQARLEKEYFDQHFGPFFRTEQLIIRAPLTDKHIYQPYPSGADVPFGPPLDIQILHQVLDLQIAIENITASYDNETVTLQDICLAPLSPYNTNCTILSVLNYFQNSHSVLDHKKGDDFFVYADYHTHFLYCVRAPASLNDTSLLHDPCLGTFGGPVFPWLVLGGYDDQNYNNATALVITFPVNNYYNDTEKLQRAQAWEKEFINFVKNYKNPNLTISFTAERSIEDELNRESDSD

Substance: Niemann-Pick disease, type C1-domain C (NPC1-dC) (from UniProt O15118 373-620) (receptor)
- percent blocking of NPC1-dC binding [1]: 72%
- percent blocking of NPC1-dC binding [2]: 79%
